Data on three substances can be found in article doi:10.1101/2025.08.25.672131.

One assay deals with CREB-bZIP-L332V (human). Briefly: other fluorescence titration.
Assay [1] has as its target CREB-bZIP (bZIP domain of human CREB1, residues 277-339 of CREB-A) (human). Briefly: stopped-flow intrinsic tyrosine fluorescence, urea refolding kinetics.
For assay [2], the target named is CREB-bZIP-L318V (human). The experiment in a line: stopped-flow fluorescence out-competition.
The target in assay [3] is CREB-bZIP-L318V (human). Briefly: other fluorescence titration.

As for CREB-bZIP-L332V (domain or fragment), the fold increase of Kd,M-M against CREB-bZIP with CREB-bZIP-L332V (human) was 100 fold.

As for “CREB-bZIP (bZIP domain of human CREB1, residues 277-339 of CREB-A) (domain or fragment)”, in assay [1], the Kd (usually the concentration at which binding is half-saturated) turned out to be 5.7 nM; the off-rate (koff) (in general, the rate constant with which the complex falls apart) is 0.029 s⁻¹; the kon (usually the rate constant with which the complex forms) turned out to be 1e+07 M⁻¹ s⁻¹.

In the assay with CREB-bZIP-L318V (human) [2], CREB-bZIP-L318V (domain or fragment) had a k+,M-M.CRE (association of a monomer with CRE-bound monomer, inferred) of 5e+09 M⁻¹ s⁻¹ and a k-,M-M.CRE (dissociation of a monomer from the CRE-bound dimer) of 0.079 s⁻¹. Further, the fold increase of Kd,M-M against CREB-bZIP with CREB-bZIP-L318V (human) [3] is 1000 fold.
